According to patent US20240182563A1 (GENOME, published 2024):
Where a chain is given by its changes, count along the chain named.

T1: human CNTN4 antigen expressed on the cell membrane of 293FT cells (human) (UniProt Q8IWV2)
T1 sequence (looked up): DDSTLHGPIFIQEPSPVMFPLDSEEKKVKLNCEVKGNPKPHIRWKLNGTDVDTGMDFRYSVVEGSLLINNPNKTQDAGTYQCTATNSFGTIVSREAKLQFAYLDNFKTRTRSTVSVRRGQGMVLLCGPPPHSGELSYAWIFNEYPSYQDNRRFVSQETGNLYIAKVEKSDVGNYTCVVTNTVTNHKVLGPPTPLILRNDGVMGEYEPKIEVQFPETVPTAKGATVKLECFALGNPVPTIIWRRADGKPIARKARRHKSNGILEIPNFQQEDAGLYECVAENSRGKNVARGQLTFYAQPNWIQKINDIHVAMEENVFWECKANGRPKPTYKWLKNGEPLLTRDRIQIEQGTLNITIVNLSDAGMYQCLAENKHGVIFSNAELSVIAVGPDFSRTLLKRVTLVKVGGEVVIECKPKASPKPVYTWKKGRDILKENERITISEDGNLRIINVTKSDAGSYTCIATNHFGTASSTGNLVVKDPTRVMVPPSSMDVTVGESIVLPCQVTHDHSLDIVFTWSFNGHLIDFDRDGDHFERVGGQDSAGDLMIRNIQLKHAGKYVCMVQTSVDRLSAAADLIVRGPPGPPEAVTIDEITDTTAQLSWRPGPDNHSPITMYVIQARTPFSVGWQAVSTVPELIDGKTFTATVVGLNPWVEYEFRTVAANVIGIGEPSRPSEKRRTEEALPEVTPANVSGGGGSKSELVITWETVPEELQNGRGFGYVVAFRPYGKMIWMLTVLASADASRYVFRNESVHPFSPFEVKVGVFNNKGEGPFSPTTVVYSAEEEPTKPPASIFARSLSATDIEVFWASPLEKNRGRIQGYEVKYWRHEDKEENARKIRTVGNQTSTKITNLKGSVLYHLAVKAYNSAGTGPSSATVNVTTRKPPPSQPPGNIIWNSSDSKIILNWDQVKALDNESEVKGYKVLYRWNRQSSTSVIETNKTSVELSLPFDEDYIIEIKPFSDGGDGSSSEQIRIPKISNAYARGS

T2: human CNTN4-rabbit Fc (human; rabbit, UniProt Q8IWV2 19-1000, limits assumed)
T2 construct: not shown: rabbit Fc
T2 sequence (looked up): T1 sequence (looked up)

T3: mouse CNTN4-rabbit Fc (mouse; rabbit, UniProt Q69Z26 19-1000, limits assumed)
T3 construct: not shown: rabbit Fc
T3 sequence (looked up): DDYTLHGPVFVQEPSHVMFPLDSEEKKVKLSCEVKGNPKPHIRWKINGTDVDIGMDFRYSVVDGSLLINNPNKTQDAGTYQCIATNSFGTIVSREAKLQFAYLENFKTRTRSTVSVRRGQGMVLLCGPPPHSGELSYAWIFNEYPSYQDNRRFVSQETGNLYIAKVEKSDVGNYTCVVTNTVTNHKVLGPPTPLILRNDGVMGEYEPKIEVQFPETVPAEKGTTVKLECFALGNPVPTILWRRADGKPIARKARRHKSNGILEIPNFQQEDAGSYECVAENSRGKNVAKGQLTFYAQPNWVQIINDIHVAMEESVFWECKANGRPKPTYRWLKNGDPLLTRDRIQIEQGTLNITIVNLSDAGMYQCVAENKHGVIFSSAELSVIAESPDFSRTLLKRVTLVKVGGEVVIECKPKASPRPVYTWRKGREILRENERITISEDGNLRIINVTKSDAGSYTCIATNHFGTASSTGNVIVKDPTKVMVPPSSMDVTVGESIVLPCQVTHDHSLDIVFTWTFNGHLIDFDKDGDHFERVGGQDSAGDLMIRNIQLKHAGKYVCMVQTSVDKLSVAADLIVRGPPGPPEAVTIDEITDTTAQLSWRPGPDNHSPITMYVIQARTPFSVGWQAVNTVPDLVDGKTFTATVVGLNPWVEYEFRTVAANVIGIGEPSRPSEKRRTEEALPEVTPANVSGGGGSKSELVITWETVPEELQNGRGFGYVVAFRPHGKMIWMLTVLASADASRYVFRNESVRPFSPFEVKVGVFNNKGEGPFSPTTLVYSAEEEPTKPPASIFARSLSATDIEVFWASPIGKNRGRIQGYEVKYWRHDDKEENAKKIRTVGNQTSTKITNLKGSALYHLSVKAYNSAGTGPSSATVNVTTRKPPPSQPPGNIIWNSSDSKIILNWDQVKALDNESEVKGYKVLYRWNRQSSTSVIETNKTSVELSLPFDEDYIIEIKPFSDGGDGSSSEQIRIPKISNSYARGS

B1: anti-CNTN4 scFv-hCk S24 (scFv, part only; not given: linker and kappa constant region, not shown: a dimerising Fc or GST)
scFv, part: ALTQPSSVSANPGETVEITCSGGSGSYGWYQQKAPGSAPVTVIYDNTNRPSNIPSRFSGSGSDSTGTLTITGVQADDEAVYYCGSYDSIEVIFGAGTTLTVLAVTLDESGGGLHTPGGALSLVCKASGFTFSSYGMAWVRQAPGKGLEWVAGITSSGSSAGYGPAVKGRATISRDNGQSTVRLQLNNLRAEDTATYYCAKDGYIYSGGDSDSIDAWGHGTEVIVSS
B2: anti-CNTN4 scFv-hCk S46 (scFv, part only; not given: linker and kappa constant region, not shown: a dimerising Fc or GST)
scFv, part: B1 scFv, part with E78K, G208A
B3: anti-CNTN4 scFv-hCk S99 (scFv, part only; not given: linker and kappa constant region, V domains shown, not shown: another chain or arm of the molecule; a dimerising Fc or GST; small tags and cut ends)
VL: ALTQPSSVSANPGETVKITCSGGASYAGNYYYGWYQQKSPGSAPVTVIYNNNQRPSDIPSRFSGSLSGSTNTLTITGVQADDEAVYFCGSDDSSAGYTGIFGAGTTLTVL
VH: AVTLDESGGGLQTPGGALSLVCKASEFTFSGYGMHWVRQAPGKGLEFVAEISNTGSWTGYGAAVKGRATISRDNGQSTVRLQLNNLKADDTATYYCAKVGGRGWCGRSGCADDIDAWGHGTEVIVSS
B4: anti-CNTN4 scFv-hCk S4 (scFv, part only; not given: linker and kappa constant region, not shown: a dimerising Fc or GST)
scFv, part: ALTQPSSVSANPGESVKITCSGGGSSYYGWYQQKSPGSAPVTLIYQNTNRPSNIPSRFSGSGSGSTGTLTITGVRAEDEAVYYCGGYDGSTDVFGAGTTLTVLAVTLDESEGGLQTPGGALSLVCKASGFTFSSFNMFWVRQAPGKGLEYVAEISGGGGSTWYASAVKGRATISRDNGQSTVRLQLNNLRAEDTGTYYCAKSADTWSYGAATIDAWGHGTEVIVSS
B5: anti-CNTN4 scFv-hCk S6 (scFv, part only; not given: linker and kappa constant region, not shown: a dimerising Fc or GST)
scFv, part: ALTQPSSVSANPGETVKITCSGGSGNYGWYQQKSPGSAPVTVIYNGNNRPSDIPSRFSGSGSGSTNTLAITGVQAEDEAVYFCGGYDGTIDAFGAGTTLTVLAVTLDESEGGLQTPGGALSLVCKASGFTFSSFNMFWVRQAPGKGLEYVAEISGGGGSTWYAPAVKGRATISRDNGQSTVRLQLNNLRAEDTGTYYCAKSADTWSYGAATIDAWGHGTEVIVSS
B6: anti-CNTN4 scFv-hCk S1 (scFv, part only; not given: linker and kappa constant region, not shown: a dimerising Fc or GST)
scFv, part: ALTQPSSVSANPGETVKITCSGGSSYGWYQQKSPGSAPVTVIYDNTNRPSNIPSRFSGSKSGSTNTLTITGVRAEDEAVYFCGGYDSSIDAFGAGTTLTVLAVTLDESEGGLQTPGGALSLVCKASGFTFSSFNMFWVRQAPGKGLEYVAEISGGGGSTWYAPAVKGRATISRDNGQSTVRLQLNNLRAEDTGTYYCAKSADTWSYGAATIDAWGHGTEVIVSS
B7: anti-CNTN4 scFv-hCk S96 (scFv, part only; not given: linker and kappa constant region, V domains shown, not shown: another chain or arm of the molecule; a dimerising Fc or GST; small tags and cut ends)
VL: ALTQPSSVSANPGETVKITCSGSSGSYGYSWHQQKSPGSAPVTVIYESNKRPSNIPSRFSGSTSGSTSTLTITGVQADDEAVYFCGSADSSTTIAFGAGTTLTVL
VH: AVTLDESGGGLQTPGGTLSLVCKASGFTFSTYSMQWLRQAPGKGLEWVAGISNSGSSTVYGPAVKGRATISRDNGQSTVSLQLNNLRAEDTGTYYCAKSTYGGSWYAAYSIDEWGHGTEVIVSS
B8: anti-CNTN4 scFv-hCk S83 (scFv, part only; not given: linker and kappa constant region, not shown: a dimerising Fc or GST)
scFv, part: ALTQPSSVSANLGETVKITCSGGGGYSGSYYYGWYQQKSPAGAPDTVIYSNNQRPSNIPSRFSGSKSGSTGTLTITEDHAEDEAVYYCGSIDSSSNPGIFGAGTTLTVLAVTLDKSGGGLHTPGGALSLVCKASGFTFSRYIMQWVLQAPGKVLEWVASIRNGTTPKYGAAVKGRATISRDNGQSTVMLQLNSLTYDDTDAYYCDRGDDGDCICGGCAASIDIWCYATEVIVSS

target: T1, human CNTN4 antigen expressed on the cell membrane of 293FT cells (human); test: FACS, 293FT cells transfected with human CNTN4, 40 ug/mL, anti-hCk-PE

Binder	Shift % [%]
B1	5.63
B2	8.19
B3	20.5
B4	15.4
B5	14.7
B6	13.8
B7	1.69
B8	5.27

target: T2, human CNTN4-rabbit Fc; test: ELISA, plate coated with antigen-rabbit Fc, anti-human kappa-HRP

Binder	EC50 [nM]
B1	1.12
B2	1.22
B3	8.34
B4	2.6
B5	0.37
B6	4.44

target: T3, mouse CNTN4-rabbit Fc; test: as above

Binder	EC50 [nM]
B1	2.07
B2	1.2
B3	3.64
B4	1.15
B5	1.85
B6	1.53
